Results published in the supplement of paper PMC7877785.
± gives the uncertainty stated by the source.

Experiment: self-splicing fitness, log relative to wild type (ln ratio); higher = more splicing; Tetrahymena group I intron in knt gene, E. coli kanamycin selection, DiMSum; sequences stand for … in CUCUCU…GGAGGGAAAAGUUAUCAGGCAUGCACCUGGUAGCUAGUCUUUAAACCAAUAGAUUGCAUCGGUUUAAAAGGCAAGACCGUCAAAUUGCGGGAAAGGGGUCAACAGCCGUUCAGUACCAAGUCUCAGGGGAAACUUUGAGAUGGCCUUGCAAAGGGUAUGGUAAUAAGCUGACGGACAUGGUCCUAACCACGCAGCCAAGUCCUAAGUCAACAGAUCUUCUGUUGAUAUGGAUGCAGUUCACAGACUAAAUGUCGGUCGGGGAAGAUGUAUUCUUCUCAUAAGAUAUAGUCGGACCUCUCCUUAAUGGGAGCUAGCGGAUGAAGUGAUGCAACACUGGAGCCGCUGGGAACUAAUUUGUAUGCGAAAGUAUAUUGAUUAGUUUUGGAGUACUCGUGGUCG
How it was run: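 The eight P1ex-region nucleotides of an intron in the knt kanamycin-resistance gene on pET-22b(+) were all randomised and the library put into E. coli BL21(DE3). Six replicate transformations were grown overnight at 37°C or 30°C on LB agar with or without 25 μg/mL kanamycin, together with 100 μg/mL carbenicillin, 50 μM IPTG and 0.2% rhamnose. Colonies were pooled and amplicon-sequenced on an Illumina HiSeq 2500. Fitness from DiMSum is the error-weighted combination of wild-type-normalised replicate fold changes, kanamycin over none.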

Sequence	self-splicing fitness (ln) (30 °C)	self-splicing fitness (ln) (37 °C)
UAUCAGCAAUAUUACGAAUC	-3.49 ± 0.26	-0.458 ± 0.14
UCGCAGCAAUAUUACGAUAG	-2.26 ± 0.15	-1.26 ± 0.17
UCUAAGCAAUAUUACGGGAU	-2.77 ± 0.14	-2.67 ± 0.18
CGACAGCAAUAUUACGGAGC	-2.83 ± 0.19	-3.04 ± 0.25
GGGUAGCAAUAUUACGGAGA	-4.31 ± 0.3	-3.19 ± 0.23
UGCGAGCAAUAUUACGACAC	-2.71 ± 0.3	0.803 ± 0.27
AUCGAGCAAUAUUACGUUGU	-4 ± 0.26	-3.62 ± 0.31
AGCCAGCAAUAUUACGCCCG	-1.94 ± 0.47	-1.61 ± 0.36
GAUAAGCAAUAUUACGUUCA	-0.732 ± 0.093	-0.316 ± 0.12
AGCAAGCAAUAUUACGUUGG	-4.16 ± 0.14	-3.18 ± 0.17
CAGUAGCAAUAUUACGCAGG	-1.59 ± 0.096	-0.318 ± 0.11
GUUAAGCAAUAUUACGGUUC	-1.6 ± 0.081	-0.156 ± 0.12
ACAUAGCAAUAUUACGCAGG	-2.73 ± 0.15	-2.23 ± 0.17
GUUAAGCAAUAUUACGGCUG	-0.765 ± 0.11	-0.135 ± 0.13
ACAAAGCAAUAUUACGCUUC	-3.15 ± 0.14	-2.46 ± 0.16
AGCUAGCAAUAUUACGCGCC	-2.25 ± 0.23	-2.04 ± 0.29
UUCUAGCAAUAUUACGGAAC	-3.74 ± 0.43	-1.86 ± 0.3
CAUGAGCAAUAUUACGCUAG	-3.07 ± 0.21	-2.82 ± 0.23
AUUCAGCAAUAUUACGUAAA	-0.737 ± 0.08	-0.148 ± 0.12
AUGAAGCAAUAUUACGAUCC	-0.571 ± 0.11	0.455 ± 0.16
UUACAGCAAUAUUACGAUGG	-1.16 ± 0.062	-0.0316 ± 0.086
GGCGAGCAAUAUUACGGUUA	-1.07 ± 0.11	0.0284 ± 0.088
UAUAAGCAAUAUUACGUUCC	-1.83 ± 0.31	
UCAUAGCAAUAUUACGAAAG		-1.84 ± 0.47
CAGAAGCAAUAUUACGCCCA	-1.97 ± 0.15	-0.986 ± 0.16

Sequence	self-splicing fitness (ln) (30 °C)	self-splicing fitness (ln) (37 °C)
UGGCAGCAAUAUUACGGCGG	-0.882 ± 0.11	0.549 ± 0.15
UCUUAGCAAUAUUACGUUGG	-2.76 ± 0.18	-2.65 ± 0.19
AGCGAGCAAUAUUACGUGUA	-2.83 ± 0.12	-1.98 ± 0.13
CAGGAGCAAUAUUACGUCCG	0.726 ± 0.21	0.304 ± 0.29
ACUGAGCAAUAUUACGCUGG	-3.54 ± 0.2	-1.4 ± 0.2
CAGGAGCAAUAUUACGUUGG	-2.44 ± 0.14	-0.863 ± 0.14
GUCUAGCAAUAUUACGUAUG	-2.94 ± 0.18	-0.896 ± 0.13
UCAAAGCAAUAUUACGAUUA	-1.26 ± 0.11	-1.16 ± 0.12
GAUUAGCAAUAUUACGUUGA	-2.8 ± 0.22	-2.25 ± 0.19
GCCGAGCAAUAUUACGGAUG	-1.38 ± 0.06	-0.937 ± 0.072
GAUGAGCAAUAUUACGGGUU	-2.39 ± 0.17	-2.6 ± 0.27
GGGGAGCAAUAUUACGACGC	-0.34 ± 0.15	0.117 ± 0.2
CCCGAGCAAUAUUACGAGCU	-3.75 ± 0.17	-2.69 ± 0.21
AGGGAGCAAUAUUACGGGAA	-1.37 ± 0.38	-2.58 ± 0.37
CUUUAGCAAUAUUACGCAUC		-1.54 ± 0.43
UUUCAGCAAUAUUACGUCGG	-1.51 ± 0.1	-1.17 ± 0.14
GGUAAGCAAUAUUACGAGAU	-2.94 ± 0.25	-1.2 ± 0.16
AGACAGCAAUAUUACGCAUU	-3.41 ± 0.12	-1.45 ± 0.087
GCCGAGCAAUAUUACGAUUG	-2.48 ± 0.41	-2.24 ± 0.47
UGCAAGCAAUAUUACGAAUG	-1.35 ± 0.085	-0.724 ± 0.12
AAGCAGCAAUAUUACGAUUG	-2.54 ± 0.13	-1.9 ± 0.14
CCCUAGCAAUAUUACGAGCA	-2.64 ± 0.21	-3.08 ± 0.18
AUUCAGCAAUAUUACGUAGG	-1.64 ± 0.13	-0.941 ± 0.17
GGUUAGCAAUAUUACGACAA	0.354 ± 0.25	0.974 ± 0.3
GCUGAGCAAUAUUACGGCUC		-1.71 ± 0.25

Sequence	self-splicing fitness (ln) (30 °C)	self-splicing fitness (ln) (37 °C)
UGCGAGCAAUAUUACGCUAA	-1.92 ± 0.21	-2.48 ± 0.26
UGAGAGCAAUAUUACGCCGG	-3.37 ± 0.47	
CAGAAGCAAUAUUACGAGCA		-1.3 ± 0.38
CGACAGCAAUAUUACGAACC	-3.27 ± 0.27	-0.556 ± 0.2
GACCAGCAAUAUUACGGACC	-2.21 ± 0.17	-2.38 ± 0.33
AAUCAGCAAUAUUACGGGCA	-0.515 ± 0.091	-0.146 ± 0.12
CAUCAGCAAUAUUACGAACG	0.463 ± 0.11	0.656 ± 0.11
AUACAGCAAUAUUACGACGG	-3.2 ± 0.15	-0.835 ± 0.13
ACGGAGCAAUAUUACGGAUC	-3.09 ± 0.17	-2.79 ± 0.26
UUCCAGCAAUAUUACGAUAU	-3.13 ± 0.25	-0.723 ± 0.16
CUAUAGCAAUAUUACGACAG	0.0925 ± 0.097	0.0869 ± 0.11
GAGAAGCAAUAUUACGUCGA	-1.54 ± 0.13	-1.09 ± 0.14
AAUAAGCAAUAUUACGGUCC	-1.47 ± 0.14	-0.63 ± 0.22
CGAGAGCAAUAUUACGAACG	-2.48 ± 0.2	-1.04 ± 0.21
ACCCAGCAAUAUUACGUGAG	-0.151 ± 0.037	-0.0922 ± 0.054
AAAAAGCAAUAUUACGGUCG	-0.302 ± 0.062	0.273 ± 0.083
CCCGAGCAAUAUUACGCGAA		-3.31 ± 0.21
UUUUAGCAAUAUUACGGCGC	-1.12 ± 0.29	-0.567 ± 0.34
CACAAGCAAUAUUACGCUUC	-3.67 ± 0.18	-2.59 ± 0.27
UCCGAGCAAUAUUACGUACG	-3.62 ± 0.47	-2.34 ± 0.45
GUAUAGCAAUAUUACGUAUG	-3.06 ± 0.15	-1.93 ± 0.15
UCCCAGCAAUAUUACGUCUU	-2.99 ± 0.14	-2.76 ± 0.2
UCUGAGCAAUAUUACGCUUU	-3.64 ± 0.23	-3.19 ± 0.19
AUGCAGCAAUAUUACGACCA	-1.45 ± 0.17	-0.579 ± 0.18
GUGCAGCAAUAUUACGCAGC	-3.21 ± 0.34	-1.3 ± 0.34

Sequence	self-splicing fitness (ln) (30 °C)	self-splicing fitness (ln) (37 °C)
GCCGAGCAAUAUUACGUGAA	-1.74 ± 0.076	-0.417 ± 0.092
GUAAAGCAAUAUUACGAUCU	0.147 ± 0.057	0.161 ± 0.069
GACAAGCAAUAUUACGCUGG	-2.84 ± 0.14	-1.97 ± 0.17
GAUCAGCAAUAUUACGUACU	-0.188 ± 0.067	-0.441 ± 0.074
CCCUAGCAAUAUUACGGAGC	-3.31 ± 0.21	-2.22 ± 0.23
GCAAAGCAAUAUUACGAAUA	-2.56 ± 0.17	-0.704 ± 0.13
CAUGAGCAAUAUUACGCUGA	-3.24 ± 0.18	-3.09 ± 0.23
ACAAAGCAAUAUUACGUUAA	-2.91 ± 0.17	-1.32 ± 0.12
CCCGAGCAAUAUUACGCGGG	-3.54 ± 0.17	-3.45 ± 0.3
CCUGAGCAAUAUUACGGUGA	-4 ± 0.3	-2.64 ± 0.26
CAAUAGCAAUAUUACGACAA	-3.42 ± 0.18	-2.07 ± 0.15
AACGAGCAAUAUUACGCGCC	-2.77 ± 0.3	-2.61 ± 0.48
CCCCAGCAAUAUUACGGGAU	-3.28 ± 0.12	-2.48 ± 0.14
UCACAGCAAUAUUACGCCGC	-3.57 ± 0.22	-2.69 ± 0.19
UGCGAGCAAUAUUACGACUA	-1.26 ± 0.23	-1.09 ± 0.28
CAGUAGCAAUAUUACGACGC	-3.07 ± 0.38	-0.25 ± 0.25
CUCCAGCAAUAUUACGGCAG	-4.58 ± 0.21	-1.75 ± 0.15
UCAGAGCAAUAUUACGAAGC	-2.55 ± 0.44	
CAGGAGCAAUAUUACGGGCU	-4.13 ± 0.39	-2.17 ± 0.34
ACGGAGCAAUAUUACGCGCG	-2 ± 0.15	-0.429 ± 0.14
AACGAGCAAUAUUACGGCUC	-2.49 ± 0.44	
UCUCAGCAAUAUUACGCCGU	-2.55 ± 0.25	-1.56 ± 0.22
ACGCAGCAAUAUUACGCAAG	-2.25 ± 0.081	-0.638 ± 0.091
